In patent US20110158938A1:

Biological target: IL-15Rα expressed by TF-1 cells (human) (UniProt Q13261)
Test: cell-based or functional assay

Sequence of UniProt Q13261 (Q13261 31-267): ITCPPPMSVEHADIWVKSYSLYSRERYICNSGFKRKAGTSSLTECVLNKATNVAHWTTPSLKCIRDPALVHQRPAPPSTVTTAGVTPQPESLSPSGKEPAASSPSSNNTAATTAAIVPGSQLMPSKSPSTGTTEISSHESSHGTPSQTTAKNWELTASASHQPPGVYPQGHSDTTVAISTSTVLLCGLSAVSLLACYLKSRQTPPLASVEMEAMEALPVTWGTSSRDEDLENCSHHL

EC50 (pM), TF-1β proliferation | Maximal induction (% WT), TF-1β proliferation | Relative activity (% WT), TF-1β proliferation | Substance
> 20 pM | 0 % WT | < 30 % WT | FLAG-IL-15 L44D (from UniProt P40933 49-162) (ligand)
> 60 pM | 0 % WT | < 10 % WT | FLAG-IL-15 L47D (from UniProt P40933 49-162) (ligand)
